Laboratory results published in patent US20220332804A1 (CSL INNOVATION, published 2022).
Where a chain is given by its changes, count along the chain named.

Tests used:
Test in all cases: SPR, KD relative to WT C2;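 note: biacore SPR at 37 °C, anti-C2 mAbs captured via immobilised goat anti-human IgG, C2 alanine or serine surface mutants as analytes, 1:1 model fitted, double-referenced sensograms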
human C2 E532A = target: T1, human C2 E532A (human, UniProt P06681 21-752)
T1 sequence: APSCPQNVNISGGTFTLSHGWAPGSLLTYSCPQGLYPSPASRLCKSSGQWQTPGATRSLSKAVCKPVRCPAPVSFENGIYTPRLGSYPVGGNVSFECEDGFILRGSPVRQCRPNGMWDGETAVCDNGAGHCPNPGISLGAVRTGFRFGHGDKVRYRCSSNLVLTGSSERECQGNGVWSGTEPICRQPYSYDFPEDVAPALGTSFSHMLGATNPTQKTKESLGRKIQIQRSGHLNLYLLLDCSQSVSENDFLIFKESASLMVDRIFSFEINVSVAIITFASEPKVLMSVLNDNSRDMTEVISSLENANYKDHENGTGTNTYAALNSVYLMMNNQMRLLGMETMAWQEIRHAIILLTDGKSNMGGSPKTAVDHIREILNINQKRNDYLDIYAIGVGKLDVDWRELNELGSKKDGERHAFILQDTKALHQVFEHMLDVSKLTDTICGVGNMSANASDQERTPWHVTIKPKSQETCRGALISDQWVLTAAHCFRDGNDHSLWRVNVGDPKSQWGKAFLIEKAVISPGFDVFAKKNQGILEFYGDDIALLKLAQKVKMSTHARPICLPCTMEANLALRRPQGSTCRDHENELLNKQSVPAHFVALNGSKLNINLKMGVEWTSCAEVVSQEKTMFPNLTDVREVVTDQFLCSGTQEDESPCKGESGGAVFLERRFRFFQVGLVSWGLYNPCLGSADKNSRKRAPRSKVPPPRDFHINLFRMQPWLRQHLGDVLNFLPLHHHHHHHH

human C2 R510A = target: T2, human C2 R510A (human, UniProt P06681 21-752)
T2 sequence: T1 sequence with R490A, A512E

human C2 P724A = target: T3, human C2 P724A (human, UniProt P06681 21-752)
T3 sequence: T1 sequence with A512E, P704A

human C2 R493A = target: T4, human C2 R493A (human, UniProt P06681 21-752)
T4 sequence: T1 sequence with R473A, A512E

B1: RF16-226 (antibody, human IgG4 S228P, lambda)
heavy: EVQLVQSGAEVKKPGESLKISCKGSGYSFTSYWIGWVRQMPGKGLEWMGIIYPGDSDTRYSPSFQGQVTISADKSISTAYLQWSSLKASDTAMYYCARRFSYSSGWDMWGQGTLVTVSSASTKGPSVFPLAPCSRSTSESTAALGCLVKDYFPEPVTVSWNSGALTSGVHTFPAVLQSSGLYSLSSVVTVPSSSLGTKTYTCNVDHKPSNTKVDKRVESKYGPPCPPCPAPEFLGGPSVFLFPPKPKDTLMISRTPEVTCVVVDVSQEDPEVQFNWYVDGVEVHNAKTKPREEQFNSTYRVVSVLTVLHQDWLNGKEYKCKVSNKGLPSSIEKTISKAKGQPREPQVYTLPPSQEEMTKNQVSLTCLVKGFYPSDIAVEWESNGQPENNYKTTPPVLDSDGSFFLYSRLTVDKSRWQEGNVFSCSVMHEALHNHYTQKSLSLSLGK
light: SYELTQPPSVSVSPGQTARITCSGDALTSKYVAWYQQKSGLAPLLVIYEDTRRPSGIPAKFSGSSSGSVATLTISGAHGDDEADYYCYSTDASGHQRVFGGGTKLTVLSQPKAAPSVTLFPPSSEELQANKATLVCLISDFYPGAVTVAWKADGSPVKAGVETTKPSKQSNNKYAASSYLSLTPEQWKSHRSYSCQVTHEGSTVEKTVAPTECS
notes: pH-dependent anti-C2 antibody from a phage display library; also called WT
Fold diff (human C2 E532A): 2 fold | Fold diff (human C2 R510A): 11 fold | Fold diff (human C2 P724A): 40 fold | Fold diff (human C2 R493A): 2 fold
